Results on six molecules are retold here after EP4663654A1 (Hangzhou Sciwind Biosciences Co., Ltd., dated 2025).

Starred links: 1 amine or outer side, 2 acyl side, 3 side chain; linkers in the order of their positions; H or OH if unused. Non-standard residues stand in square brackets, D forms with d. *: point of attachment. C20 diacid = O=C(O)CCCCCCCCCCCCCCCCCCC(=O)*; γGlu = O=C(O)[C@H](CCC(=O)[*:2])N[*:1]; Hyp = O=C(O)[C@@H]1C[C@@H](O)CN1

To fix the notation:
T1: human amylin receptor (AMY3) on CHO-K1/Ga15/AMY3 amylin receptor/CRE-luc cells (human, UniProt P30988 25-474; O60896 24-148)
T1 sequence (looked up) 1: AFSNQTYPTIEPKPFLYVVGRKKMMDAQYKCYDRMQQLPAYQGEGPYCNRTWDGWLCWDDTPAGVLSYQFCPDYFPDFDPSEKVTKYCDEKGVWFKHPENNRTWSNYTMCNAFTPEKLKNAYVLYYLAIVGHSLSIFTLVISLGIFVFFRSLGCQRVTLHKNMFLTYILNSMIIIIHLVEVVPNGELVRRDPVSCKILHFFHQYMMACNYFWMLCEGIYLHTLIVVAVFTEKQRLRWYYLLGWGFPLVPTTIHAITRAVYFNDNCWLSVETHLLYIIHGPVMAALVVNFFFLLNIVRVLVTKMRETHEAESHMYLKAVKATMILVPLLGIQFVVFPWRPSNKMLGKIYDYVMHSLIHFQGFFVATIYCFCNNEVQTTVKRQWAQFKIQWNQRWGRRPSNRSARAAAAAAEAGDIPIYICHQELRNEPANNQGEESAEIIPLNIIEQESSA
T1 sequence (looked up) 2: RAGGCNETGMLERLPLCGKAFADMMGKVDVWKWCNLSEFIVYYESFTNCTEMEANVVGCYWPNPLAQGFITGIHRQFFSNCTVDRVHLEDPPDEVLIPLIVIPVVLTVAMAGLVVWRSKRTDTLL

B1: polypeptide derivative M49 (peptide)
peptide: {C20 diacid-γGlu}-ASQLSTAATQRLADFLRHSSTNLKPILPPTNVGSNT[Hyp]-NH2
SMILES: CC[C@H](C)[C@H](NC(=O)[C@@H]1CCCN1C(=O)[C@H](CCCCN)NC(=O)[C@H](CC(C)C)NC(=O)[C@H](CC(N)=O)NC(=O)[C@@H](NC(=O)[C@H](CO)NC(=O)[C@H](CO)NC(=O)[C@H](Cc1c[nH]cn1)NC(=O)[C@H](CCCNC(=N)N)NC(=O)[C@H](CC(C)C)NC(=O)[C@H](Cc1ccccc1)NC(=O)[C@H](CC(=O)O)NC(=O)[C@H](C)NC(=O)[C@H](CC(C)C)NC(=O)[C@H](CCCNC(=N)N)NC(=O)[C@H](CCC(N)=O)NC(=O)[C@@H](NC(=O)[C@H](C)NC(=O)[C@H](C)NC(=O)[C@@H](NC(=O)[C@H](CO)NC(=O)[C@H](CC(C)C)NC(=O)[C@H](CCC(N)=O)NC(=O)[C@H](CO)NC(=O)[C@H](C)NC(=O)CC[C@H](NC(=O)CCCCCCCCCCCCCCCCCCC(=O)O)C(=O)O)[C@@H](C)O)[C@@H](C)O)[C@@H](C)O)C(=O)N[C@@H](CC(C)C)C(=O)N1CCC[C@H]1C(=O)N1CCC[C@H]1C(=O)N[C@H](C(=O)N[C@@H](CC(N)=O)C(=O)N[C@H](C(=O)NCC(=O)N[C@@H](CO)C(=O)N[C@@H](CC(N)=O)C(=O)N[C@H](C(=O)N1C[C@H](O)C[C@H]1C(N)=O)[C@@H](C)O)C(C)C)[C@@H](C)O
B2: polypeptide derivative M47 (peptide)
peptide: {C20 diacid-γGlu}-ASQLSTAATQRLADFLRHSSENLKPILPPTNVGSNT[Hyp]-NH2
SMILES: CC[C@H](C)[C@H](NC(=O)[C@@H]1CCCN1C(=O)[C@H](CCCCN)NC(=O)[C@H](CC(C)C)NC(=O)[C@H](CC(N)=O)NC(=O)[C@H](CCC(=O)O)NC(=O)[C@H](CO)NC(=O)[C@H](CO)NC(=O)[C@H](Cc1c[nH]cn1)NC(=O)[C@H](CCCNC(=N)N)NC(=O)[C@H](CC(C)C)NC(=O)[C@H](Cc1ccccc1)NC(=O)[C@H](CC(=O)O)NC(=O)[C@H](C)NC(=O)[C@H](CC(C)C)NC(=O)[C@H](CCCNC(=N)N)NC(=O)[C@H](CCC(N)=O)NC(=O)[C@@H](NC(=O)[C@H](C)NC(=O)[C@H](C)NC(=O)[C@@H](NC(=O)[C@H](CO)NC(=O)[C@H](CC(C)C)NC(=O)[C@H](CCC(N)=O)NC(=O)[C@H](CO)NC(=O)[C@H](C)NC(=O)CC[C@H](NC(=O)CCCCCCCCCCCCCCCCCCC(=O)O)C(=O)O)[C@@H](C)O)[C@@H](C)O)C(=O)N[C@@H](CC(C)C)C(=O)N1CCC[C@H]1C(=O)N1CCC[C@H]1C(=O)N[C@H](C(=O)N[C@@H](CC(N)=O)C(=O)N[C@H](C(=O)NCC(=O)N[C@@H](CO)C(=O)N[C@@H](CC(N)=O)C(=O)N[C@H](C(=O)N1C[C@H](O)C[C@H]1C(N)=O)[C@@H](C)O)C(C)C)[C@@H](C)O
B3: polypeptide derivative M51 (peptide)
peptide: {C20 diacid-γGlu}-ASQLSTAATQRLADFLRHSSGNLKPILPPTNVGSNT[Hyp]-NH2
SMILES: CC[C@H](C)[C@H](NC(=O)[C@@H]1CCCN1C(=O)[C@H](CCCCN)NC(=O)[C@H](CC(C)C)NC(=O)[C@H](CC(N)=O)NC(=O)CNC(=O)[C@H](CO)NC(=O)[C@H](CO)NC(=O)[C@H](Cc1c[nH]cn1)NC(=O)[C@H](CCCNC(=N)N)NC(=O)[C@H](CC(C)C)NC(=O)[C@H](Cc1ccccc1)NC(=O)[C@H](CC(=O)O)NC(=O)[C@H](C)NC(=O)[C@H](CC(C)C)NC(=O)[C@H](CCCNC(=N)N)NC(=O)[C@H](CCC(N)=O)NC(=O)[C@@H](NC(=O)[C@H](C)NC(=O)[C@H](C)NC(=O)[C@@H](NC(=O)[C@H](CO)NC(=O)[C@H](CC(C)C)NC(=O)[C@H](CCC(N)=O)NC(=O)[C@H](CO)NC(=O)[C@H](C)NC(=O)CC[C@H](NC(=O)CCCCCCCCCCCCCCCCCCC(=O)O)C(=O)O)[C@@H](C)O)[C@@H](C)O)C(=O)N[C@@H](CC(C)C)C(=O)N1CCC[C@H]1C(=O)N1CCC[C@H]1C(=O)N[C@H](C(=O)N[C@@H](CC(N)=O)C(=O)N[C@H](C(=O)NCC(=O)N[C@@H](CO)C(=O)N[C@@H](CC(N)=O)C(=O)N[C@H](C(=O)N1C[C@H](O)C[C@H]1C(N)=O)[C@@H](C)O)C(C)C)[C@@H](C)O
B4: polypeptide derivative M50 (peptide)
peptide: {C20 diacid-γGlu}-ASQLSTAATQRLADFLRHSSANLKPILPPTNVGSNT[Hyp]-NH2
SMILES: CC[C@H](C)[C@H](NC(=O)[C@@H]1CCCN1C(=O)[C@H](CCCCN)NC(=O)[C@H](CC(C)C)NC(=O)[C@H](CC(N)=O)NC(=O)[C@H](C)NC(=O)[C@H](CO)NC(=O)[C@H](CO)NC(=O)[C@H](Cc1c[nH]cn1)NC(=O)[C@H](CCCNC(=N)N)NC(=O)[C@H](CC(C)C)NC(=O)[C@H](Cc1ccccc1)NC(=O)[C@H](CC(=O)O)NC(=O)[C@H](C)NC(=O)[C@H](CC(C)C)NC(=O)[C@H](CCCNC(=N)N)NC(=O)[C@H](CCC(N)=O)NC(=O)[C@@H](NC(=O)[C@H](C)NC(=O)[C@H](C)NC(=O)[C@@H](NC(=O)[C@H](CO)NC(=O)[C@H](CC(C)C)NC(=O)[C@H](CCC(N)=O)NC(=O)[C@H](CO)NC(=O)[C@H](C)NC(=O)CC[C@H](NC(=O)CCCCCCCCCCCCCCCCCCC(=O)O)C(=O)O)[C@@H](C)O)[C@@H](C)O)C(=O)N[C@@H](CC(C)C)C(=O)N1CCC[C@H]1C(=O)N1CCC[C@H]1C(=O)N[C@H](C(=O)N[C@@H](CC(N)=O)C(=O)N[C@H](C(=O)NCC(=O)N[C@@H](CO)C(=O)N[C@@H](CC(N)=O)C(=O)N[C@H](C(=O)N1C[C@H](O)C[C@H]1C(N)=O)[C@@H](C)O)C(C)C)[C@@H](C)O
B5: polypeptide derivative M46 (peptide)
peptide: {C20 diacid-γGlu}-ASQLSTAATQRLADFLRHSSQNLKPILPPTNVGSNT[Hyp]-NH2
SMILES: CC[C@H](C)[C@H](NC(=O)[C@@H]1CCCN1C(=O)[C@H](CCCCN)NC(=O)[C@H](CC(C)C)NC(=O)[C@H](CC(N)=O)NC(=O)[C@H](CCC(N)=O)NC(=O)[C@H](CO)NC(=O)[C@H](CO)NC(=O)[C@H](Cc1c[nH]cn1)NC(=O)[C@H](CCCNC(=N)N)NC(=O)[C@H](CC(C)C)NC(=O)[C@H](Cc1ccccc1)NC(=O)[C@H](CC(=O)O)NC(=O)[C@H](C)NC(=O)[C@H](CC(C)C)NC(=O)[C@H](CCCNC(=N)N)NC(=O)[C@H](CCC(N)=O)NC(=O)[C@@H](NC(=O)[C@H](C)NC(=O)[C@H](C)NC(=O)[C@@H](NC(=O)[C@H](CO)NC(=O)[C@H](CC(C)C)NC(=O)[C@H](CCC(N)=O)NC(=O)[C@H](CO)NC(=O)[C@H](C)NC(=O)CC[C@H](NC(=O)CCCCCCCCCCCCCCCCCCC(=O)O)C(=O)O)[C@@H](C)O)[C@@H](C)O)C(=O)N[C@@H](CC(C)C)C(=O)N1CCC[C@H]1C(=O)N1CCC[C@H]1C(=O)N[C@H](C(=O)N[C@@H](CC(N)=O)C(=O)N[C@H](C(=O)NCC(=O)N[C@@H](CO)C(=O)N[C@@H](CC(N)=O)C(=O)N[C@H](C(=O)N1C[C@H](O)C[C@H]1C(N)=O)[C@@H](C)O)C(C)C)[C@@H](C)O
B6: polypeptide derivative M48 (peptide)
peptide: {C20 diacid-γGlu}-ASQLSTAATQRLADFLRHSSSNLKPILPPTNVGSNT[Hyp]-NH2
SMILES: CC[C@H](C)[C@H](NC(=O)[C@@H]1CCCN1C(=O)[C@H](CCCCN)NC(=O)[C@H](CC(C)C)NC(=O)[C@H](CC(N)=O)NC(=O)[C@H](CO)NC(=O)[C@H](CO)NC(=O)[C@H](CO)NC(=O)[C@H](Cc1c[nH]cn1)NC(=O)[C@H](CCCNC(=N)N)NC(=O)[C@H](CC(C)C)NC(=O)[C@H](Cc1ccccc1)NC(=O)[C@H](CC(=O)O)NC(=O)[C@H](C)NC(=O)[C@H](CC(C)C)NC(=O)[C@H](CCCNC(=N)N)NC(=O)[C@H](CCC(N)=O)NC(=O)[C@@H](NC(=O)[C@H](C)NC(=O)[C@H](C)NC(=O)[C@@H](NC(=O)[C@H](CO)NC(=O)[C@H](CC(C)C)NC(=O)[C@H](CCC(N)=O)NC(=O)[C@H](CO)NC(=O)[C@H](C)NC(=O)CC[C@H](NC(=O)CCCCCCCCCCCCCCCCCCC(=O)O)C(=O)O)[C@@H](C)O)[C@@H](C)O)C(=O)N[C@@H](CC(C)C)C(=O)N1CCC[C@H]1C(=O)N1CCC[C@H]1C(=O)N[C@H](C(=O)N[C@@H](CC(N)=O)C(=O)N[C@H](C(=O)NCC(=O)N[C@@H](CO)C(=O)N[C@@H](CC(N)=O)C(=O)N[C@H](C(=O)N1C[C@H](O)C[C@H]1C(N)=O)[C@@H](C)O)C(C)C)[C@@H](C)O

In the experiment the target is T1, human amylin receptor (AMY3) on …. Briefly: cell-based or functional assay.
For the molecule B1, the “EC50/nM, CRE-luciferase reporter in amylin receptor/CRE-luc CHO cells” value (from here on “EC50/nM … in amylin receptor/CRE-luc CHO cells”) amounted to 0.08 nM and the “Relative activity (the EC50 ratio of Cagrilintide to the compound)” value came to 163%.

Turning to B2, the “EC50/nM … in amylin receptor/CRE-luc CHO cells” value was 0.08 nM and the “Relative activity (the EC50 ratio of Cagrilintide to the compound)” value is 113%.

For the molecule B3, the “EC50/nM … in amylin receptor/CRE-luc CHO cells” value came to 0.08 nM and the “Relative activity (the EC50 ratio of Cagrilintide to the compound)” value was found to be 163%.

Consider B4, for which the “EC50/nM … in amylin receptor/CRE-luc CHO cells” value came out at 0.07 nM and the “Relative activity (the EC50 ratio of Cagrilintide to the compound)” value is 186%.

On to B5, for which the “EC50/nM … in amylin receptor/CRE-luc CHO cells” value stood at 0.06 nM and the “Relative activity (the EC50 ratio of Cagrilintide to the compound)” value was determined as 150%.

As to B6, the “EC50/nM … in amylin receptor/CRE-luc CHO cells” value turned out to be 0.05 nM and the “Relative activity (the EC50 ratio of Cagrilintide to the compound)” value was 180%.
